In PMC10827111 (bioRxiv, 2024):

Legend:
Assay in all cases: ELISA
[1] = target: MERS-CoV S2 subdomain (MERS-CoV, strain ; stand-in …, UniProt K0BRG7)
[2] = target: HCoV-OC43 S-2P (HCoV-OC43 (strain ; numbering …, UniProt P36334, stabilised)
[3] = target: SARS-CoV-2 S2 subdomain (Sino Biological) (SARS-CoV-2 (Wuhan-Hu-1 reference), UniProt P0DTC2)

Measured: binding result

B1: antibody 54043-5 (IgG) (antibody, V domains shown)
VH: QVQLQESGPGLVKPSQTLSLTCTVSGDSISNSSYYWSWIRQYPSRRLEWIGYIYYNGRTYYNPSLNSRLSISLDTSKNHFSLKLSSLTAADTALYYCARGFLGYCAGGSCFLNWLDPWGQGTLVTVSS
VL: EIIMTQSPATLSVSPGGRATLSCRASQSVSNNLAWYQQKPGQTPRLLIHGASTRATGIPARFSGSGSGTEFTLTISSLQSEDFAVYYCHQYHNWLLTFGGGTKVEIK
binds: all assays above
